Here are results for 81 substances from the Human Domainome abundance scans (Beltran et al. 2025).

± gives the uncertainty stated by the source.

The data set can be described thus: abundance fitness (aPCA) (normalised: wild type 0, dead -1); higher = more abundant; growth selection in yeast, the domain comes from the species named. The conditions noted are these: Homo sapiens.
“BAG family molecular chaperone regulator 3 S14L, O95817” showed an abundance fitness of 0.091 ± 0.11.
With “BAG family molecular chaperone regulator 3 S14M, O95817”, the abundance fitness was -0.022 ± 0.2.
The result for “BAG family molecular chaperone regulator 3 S14N, O95817” reads -0.156 ± 0.17; that for “BAG family molecular chaperone regulator 3 S14P, O95817”, -0.269 ± 0.19; that for “BAG family molecular chaperone regulator 3 S14Q, O95817”, 0.677 ± 0.15.
The result for “BAG family molecular chaperone regulator 3 S14T, O95817” reads -0.084 ± 0.19; that for “BAG family molecular chaperone regulator 3 S14V, O95817”, -0.219 ± 0.14; that for “BAG family molecular chaperone regulator 3 S14W, O95817”, -0.576 ± 0.23.
The substance “BAG family molecular chaperone regulator 3 S14Y, O95817” showed an abundance fitness of -0.113 ± 0.15.
Consider “BAG family molecular chaperone regulator 3 S44C, O95817”, for which the abundance fitness is -0.688 ± 0.31.
“BAG family molecular chaperone regulator 3 S44D, O95817” displayed an abundance fitness of -0.557 ± 0.47.
In turn, “BAG family molecular chaperone regulator 3 S44E, O95817” registered an abundance fitness of -0.489 ± 0.17.
Regarding “BAG family molecular chaperone regulator 3 S44F, O95817”, the abundance fitness was -0.682 ± 0.29.
Substance “BAG family molecular chaperone regulator 3 S44G, O95817” displayed an abundance fitness of -0.483 ± 0.11.
As to “BAG family molecular chaperone regulator 3 S44H, O95817”, the abundance fitness is -0.481 ± 0.37.
On to “BAG family molecular chaperone regulator 3 S44K, O95817”, for which the abundance fitness is -0.7 ± 0.43.
On to “BAG family molecular chaperone regulator 3 S44L, O95817”, for which the abundance fitness is -0.246 ± 0.17.
In the case of “BAG family molecular chaperone regulator 3 S44M, O95817”, the abundance fitness is -0.371 ± 0.15.
Turning to “BAG family molecular chaperone regulator 3 S44N, O95817”, the abundance fitness is -0.035 ± 0.25.
“BAG family molecular chaperone regulator 3 S44Q, O95817” registered an abundance fitness of -0.44 ± 0.29.
The result for “BAG family molecular chaperone regulator 3 S44R, O95817” reads -0.335 ± 0.08.
In turn, “BAG family molecular chaperone regulator 3 S44T, O95817” returned an abundance fitness of 0.209 ± 0.11.
Turning to “BAG family molecular chaperone regulator 3 S44W, O95817”, the abundance fitness is -0.86 ± 0.17.
On to “BAG family molecular chaperone regulator 3 S44Y, O95817”, for which the abundance fitness was -0.485 ± 0.39.
As for “BAG family molecular chaperone regulator 3 S56A, O95817”, the figure is -0.146 ± 0.12; as for “BAG family molecular chaperone regulator 3 S56C, O95817”, -0.13 ± 0.18; as for “BAG family molecular chaperone regulator 3 S56E, O95817”, -0.24 ± 0.25.
As for “BAG family molecular chaperone regulator 3 S56F, O95817”, the abundance fitness is -0.205 ± 0.13.
In turn, “BAG family molecular chaperone regulator 3 S56G, O95817” gave an abundance fitness of -0.011 ± 0.063.
As for “BAG family molecular chaperone regulator 3 S56H, O95817”, the abundance fitness is -0.411 ± 0.37.
“BAG family molecular chaperone regulator 3 S56I, O95817” yielded an abundance fitness of 0.304 ± 0.1.
As for “BAG family molecular chaperone regulator 3 S56K, O95817”, the abundance fitness is -0.136 ± 0.29.
In the case of “BAG family molecular chaperone regulator 3 S56L, O95817”, the abundance fitness was -0.125 ± 0.14.
“BAG family molecular chaperone regulator 3 S56M, O95817” returned an abundance fitness of 0.083 ± 0.12.
The substance “BAG family molecular chaperone regulator 3 S56N, O95817” came in with an abundance fitness of 0.103 ± 0.19.
The substance “BAG family molecular chaperone regulator 3 S56P, O95817” yielded an abundance fitness of -0.572 ± 0.27.
As to “BAG family molecular chaperone regulator 3 S56R, O95817”, the abundance fitness was found to be 0.007 ± 0.063.
Take “BAG family molecular chaperone regulator 3 S56T, O95817”: the abundance fitness worked out at 0.208 ± 0.16.
In turn, “BAG family molecular chaperone regulator 3 S56V, O95817” displayed an abundance fitness of 0.08 ± 0.1.
Consider “BAG family molecular chaperone regulator 3 S56W, O95817”, for which the abundance fitness was -0.473 ± 0.13.
As for “BAG family molecular chaperone regulator 3 S56Y, O95817”, the figure is 0.376 ± 0.3; as for “BAG family molecular chaperone regulator 3 T34A, O95817”, 0.131 ± 0.12; as for “BAG family molecular chaperone regulator 3 T34C, O95817”, -0.073 ± 0.13.
“BAG family molecular chaperone regulator 3 T34E, O95817” came in with an abundance fitness of -0.183 ± 0.19.
Substance “BAG family molecular chaperone regulator 3 T34G, O95817” came in with an abundance fitness of 0.064 ± 0.087.
With “BAG family molecular chaperone regulator 3 T34H, O95817”, the abundance fitness was -0.495 ± 0.48.
Consider “BAG family molecular chaperone regulator 3 T34I, O95817”, for which the abundance fitness was 0.028 ± 0.2.
The result for “BAG family molecular chaperone regulator 3 T34K, O95817” reads 0.244 ± 0.23; that for “BAG family molecular chaperone regulator 3 T34L, O95817”, -0.568 ± 0.084; that for “BAG family molecular chaperone regulator 3 T34M, O95817”, 0.01 ± 0.23.
For the substance “BAG family molecular chaperone regulator 3 T34N, O95817”, the abundance fitness was determined as 0.336 ± 0.26.
For “BAG family molecular chaperone regulator 3 T34P, O95817”, the abundance fitness was -0.688 ± 0.14.
“BAG family molecular chaperone regulator 3 T34Q, O95817” came in with an abundance fitness of -0.148 ± 0.1.
For “BAG family molecular chaperone regulator 3 T34R, O95817”, the abundance fitness is -0.391 ± 0.12.
As for “BAG family molecular chaperone regulator 3 T34S, O95817”, the figure is 0.579 ± 0.089; as for “BAG family molecular chaperone regulator 3 T34V, O95817”, 0.011 ± 0.17; as for “BAG family molecular chaperone regulator 3 T34W, O95817”, -0.179 ± 0.083.
The result for “BAG family molecular chaperone regulator 3 T46A, O95817” reads -0.687 ± 0.32; that for “BAG family molecular chaperone regulator 3 T46C, O95817”, -0.312 ± 0.086.
The substance “BAG family molecular chaperone regulator 3 T46G, O95817” displayed an abundance fitness of -0.65 ± 0.075.
Substance “BAG family molecular chaperone regulator 3 T46H, O95817” came in with an abundance fitness of -0.571 ± 0.4.
The result for “BAG family molecular chaperone regulator 3 T46I, O95817” reads -0.285 ± 0.21.
As to “BAG family molecular chaperone regulator 3 T46K, O95817”, the abundance fitness was -0.435 ± 0.33.
“BAG family molecular chaperone regulator 3 T46L, O95817” came in with an abundance fitness of -0.53 ± 0.12.
On to “BAG family molecular chaperone regulator 3 T46P, O95817”, for which the abundance fitness is -0.752 ± 0.32.
As for “BAG family molecular chaperone regulator 3 T46Q, O95817”, the abundance fitness is -0.444 ± 0.14.
“BAG family molecular chaperone regulator 3 T46R, O95817”: the abundance fitness is -0.225 ± 0.11.
For “BAG family molecular chaperone regulator 3 T46S, O95817”, the abundance fitness is -0.183 ± 0.12.
As for “BAG family molecular chaperone regulator 3 T46V, O95817”, the abundance fitness was -0.531 ± 0.14.
“BAG family molecular chaperone regulator 3 T46Y, O95817” yielded an abundance fitness of -0.358 ± 0.33.
As for “BAG family molecular chaperone regulator 3 T47A, O95817”, the figure is -0.613 ± 0.17.
“BAG family molecular chaperone regulator 3 T47C, O95817” returned an abundance fitness of -0.227 ± 0.27.
In turn, “BAG family molecular chaperone regulator 3 T47D, O95817” came in with an abundance fitness of -0.679 ± 0.42.
In the case of “BAG family molecular chaperone regulator 3 T47E, O95817”, the abundance fitness was -0.573 ± 0.15.
As for “BAG family molecular chaperone regulator 3 T47G, O95817”, the abundance fitness was -0.796 ± 0.14.
The result for “BAG family molecular chaperone regulator 3 T47H, O95817” reads -0.736 ± 0.3; that for “BAG family molecular chaperone regulator 3 T47I, O95817”, -0.468 ± 0.23.
As for “BAG family molecular chaperone regulator 3 T47L, O95817”, the figure is -0.613 ± 0.28; as for “BAG family molecular chaperone regulator 3 T47M, O95817”, -0.564 ± 0.24.
As for “BAG family molecular chaperone regulator 3 T47N, O95817”, the figure is -0.53 ± 0.2; as for “BAG family molecular chaperone regulator 3 T47Q, O95817”, -0.741 ± 0.14.
